Usually IC50 stands for the concentration needed to halve the response being measured.

This is an account of results in patent publication US20140087995A1 (published 2014).

Numbered stars: 1 amine (or outer) side, 2 acyl side, 3 side chain; on linkers, the order of the positions; unused ones are H or OH. Bridge positions count the residues as written; N and C are the ends. Side chains are listed from the residue outwards. Ends that are not written are not given here. * marks the point of attachment. C20 diacid = O=C(O)CCCCCCCCCCCCCCCCCCC(=O)*; γGlu = O=C(O)[C@H](CCC(=O)[*:2])N[*:1]

In experiment [1] the target is T1, rat amylin receptor (rat calcitonin receptor + rat RAMP 3) (rat, UniProt P32214 25-516; Q9JJ73 23-147).
T1 construct: whole, on cells; Membranes prepared from transiently transfected BHK tk'ts 13 cells; also called rAmylin-R; rat amylin 3(a) receptor
T1 sequence (looked up) 1: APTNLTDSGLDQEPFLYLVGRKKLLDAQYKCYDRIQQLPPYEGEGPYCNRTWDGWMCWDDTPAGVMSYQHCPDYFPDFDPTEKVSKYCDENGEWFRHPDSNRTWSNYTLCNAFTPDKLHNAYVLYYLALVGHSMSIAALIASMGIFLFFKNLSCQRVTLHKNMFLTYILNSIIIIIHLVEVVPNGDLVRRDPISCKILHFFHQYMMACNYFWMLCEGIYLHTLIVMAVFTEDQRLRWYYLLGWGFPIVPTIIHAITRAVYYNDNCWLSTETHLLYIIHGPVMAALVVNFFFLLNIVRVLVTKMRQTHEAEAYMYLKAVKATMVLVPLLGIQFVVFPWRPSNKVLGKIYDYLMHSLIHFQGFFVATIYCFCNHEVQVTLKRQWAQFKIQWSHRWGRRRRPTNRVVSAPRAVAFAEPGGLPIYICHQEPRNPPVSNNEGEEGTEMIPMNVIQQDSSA
T1 sequence (looked up) 2: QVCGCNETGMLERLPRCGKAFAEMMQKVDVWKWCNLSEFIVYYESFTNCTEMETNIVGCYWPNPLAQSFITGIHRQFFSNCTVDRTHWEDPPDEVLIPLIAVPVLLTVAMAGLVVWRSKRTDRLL
The experiment is described as follows: SPA competition vs 125I-rat amylin, membranes (Assay VI).

The target in experiment [2] is T2, rat calcitonin receptor (rat, UniProt P32214 25-516).
T2 construct: whole, on cells; Membranes prepared from transiently transfected BHK tk'ts 13 cells; also called rCTR; rat calcitonin (a) receptor
T2 sequence (looked up): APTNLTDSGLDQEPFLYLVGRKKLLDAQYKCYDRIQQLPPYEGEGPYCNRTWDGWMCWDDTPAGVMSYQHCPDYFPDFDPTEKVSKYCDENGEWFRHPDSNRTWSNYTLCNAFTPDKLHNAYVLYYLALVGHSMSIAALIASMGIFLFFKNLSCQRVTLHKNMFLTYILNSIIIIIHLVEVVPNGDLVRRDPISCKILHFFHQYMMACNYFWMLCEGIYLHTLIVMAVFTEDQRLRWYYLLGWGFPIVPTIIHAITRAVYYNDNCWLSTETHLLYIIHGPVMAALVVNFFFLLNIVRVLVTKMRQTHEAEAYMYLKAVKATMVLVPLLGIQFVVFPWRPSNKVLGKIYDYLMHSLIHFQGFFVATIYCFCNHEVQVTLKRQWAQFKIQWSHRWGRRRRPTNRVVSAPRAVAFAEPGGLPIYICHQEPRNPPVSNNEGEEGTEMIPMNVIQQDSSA
The experiment is described as follows: SPA competition vs 125I-calcitonin, membranes (Assay VIII).

The target in experiment [3] is T2, rat calcitonin receptor. The experiment is described as follows: ratio of IC50 on rat calcitonin receptor to IC50 on rat amylin receptor.
The target of experiment [4] is T3, human calcitonin receptor (human, UniProt P30988 25-474).
T3 construct: whole, on cells; Membranes from stably transfected BHK cells; also called hCTR; hCT
T3 sequence (looked up): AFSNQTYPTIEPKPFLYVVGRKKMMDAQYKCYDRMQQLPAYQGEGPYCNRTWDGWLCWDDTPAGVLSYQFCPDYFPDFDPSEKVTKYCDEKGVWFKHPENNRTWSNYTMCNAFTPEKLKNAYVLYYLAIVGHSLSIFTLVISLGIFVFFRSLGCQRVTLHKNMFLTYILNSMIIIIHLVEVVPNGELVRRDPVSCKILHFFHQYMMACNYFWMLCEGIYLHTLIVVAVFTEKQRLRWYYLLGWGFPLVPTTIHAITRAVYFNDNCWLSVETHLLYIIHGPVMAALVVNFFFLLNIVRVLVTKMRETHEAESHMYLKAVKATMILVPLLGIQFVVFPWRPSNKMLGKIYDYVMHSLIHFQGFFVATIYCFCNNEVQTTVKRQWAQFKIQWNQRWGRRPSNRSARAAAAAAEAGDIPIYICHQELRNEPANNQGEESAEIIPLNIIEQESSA
The experiment is described as follows: ratio of IC50 on human calcitonin receptor to IC50 on human amylin receptor. In short, it runs like this:
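Competition binding by SPA with cell membranes (35 ng/μL) and SPA beads in 50 mM Hepes pH 7.4 with 1 mM CaCl2, 5 mM MgCl2, 0.1% OA and 0.02% Tween20. Incubated 120 min at 25 °C with shaking, then counted.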

B1: N^ε1-[(4S)-4-carboxy-4-(19-carboxynonadecanoylamino)butanoyl]-[Glu14,Arg17,Pro21,Pro27,Pro34,Glu35]-h-amylin (peptide)
peptide: K([γGlu-C20 diacid])CNTATCATQRLAEFLRHSSPNFGAIPSSTNVGPETY-NH2
modifications: disulfide 2-7; N-terminus assumed
SMILES: CC[C@H](C)[C@H](NC(=O)[C@H](C)NC(=O)CNC(=O)[C@H](Cc1ccccc1)NC(=O)[C@H](CC(N)=O)NC(=O)[C@@H]1CCCN1C(=O)[C@H](CO)NC(=O)[C@H](CO)NC(=O)[C@H](Cc1c[nH]cn1)NC(=O)[C@H](CCCNC(=N)N)NC(=O)[C@H](CC(C)C)NC(=O)[C@H](Cc1ccccc1)NC(=O)[C@H](CCC(=O)O)NC(=O)[C@H](C)NC(=O)[C@H](CC(C)C)NC(=O)[C@H](CCCNC(=N)N)NC(=O)[C@H](CCC(N)=O)NC(=O)[C@@H](NC(=O)[C@H](C)NC(=O)[C@@H]1CSSC[C@H](NC(=O)[C@@H](N)CCCCNC(=O)CC[C@H](NC(=O)CCCCCCCCCCCCCCCCCCC(=O)O)C(=O)O)C(=O)N[C@@H](CC(N)=O)C(=O)N[C@@H]([C@@H](C)O)C(=O)N[C@@H](C)C(=O)N[C@@H]([C@@H](C)O)C(=O)N1)[C@@H](C)O)C(=O)N1CCC[C@H]1C(=O)N[C@@H](CO)C(=O)N[C@@H](CO)C(=O)N[C@H](C(=O)N[C@@H](CC(N)=O)C(=O)N[C@H](C(=O)NCC(=O)N1CCC[C@H]1C(=O)N[C@@H](CCC(=O)O)C(=O)N[C@H](C(=O)N[C@@H](Cc1ccc(O)cc1)C(N)=O)[C@@H](C)O)C(C)C)[C@@H](C)O
Turning to B1, the concentration for half-maximal inhibition (IC50) in experiment [1] worked out at 0.164 nM; with rat calcitonin receptor [2], 10.4 nM. In addition, in the experiment with rat calcitonin receptor [3], the “Ratio rCT/rAmylin binding” value is 63.2. Further, the “Ratio hCT/hAmylin binding” value in experiment [4] worked out at 13.3.

B2: N^-1-[(4S)-4-carboxy-4-(19-carboxynonadecanoylamino)butanoyl]-Gly[Arg1,Ala14,Arg17,Pro21,Pro27,His34]-h-amylin (peptide)
peptide: {C20 diacid-γGlu}-GRCNTATCATQRLAAFLRHSSPNFGAIPSSTNVGHNTY-NH2
modifications: disulfide 3-8
SMILES: CC[C@H](C)[C@H](NC(=O)[C@H](C)NC(=O)CNC(=O)[C@H](Cc1ccccc1)NC(=O)[C@H](CC(N)=O)NC(=O)[C@@H]1CCCN1C(=O)[C@H](CO)NC(=O)[C@H](CO)NC(=O)[C@H](Cc1c[nH]cn1)NC(=O)[C@H](CCCNC(=N)N)NC(=O)[C@H](CC(C)C)NC(=O)[C@H](Cc1ccccc1)NC(=O)[C@H](C)NC(=O)[C@H](C)NC(=O)[C@H](CC(C)C)NC(=O)[C@H](CCCNC(=N)N)NC(=O)[C@H](CCC(N)=O)NC(=O)[C@@H](NC(=O)[C@H](C)NC(=O)[C@@H]1CSSC[C@H](NC(=O)[C@H](CCCNC(=N)N)NC(=O)CNC(=O)CC[C@H](NC(=O)CCCCCCCCCCCCCCCCCCC(=O)O)C(=O)O)C(=O)N[C@@H](CC(N)=O)C(=O)N[C@@H]([C@@H](C)O)C(=O)N[C@@H](C)C(=O)N[C@@H]([C@@H](C)O)C(=O)N1)[C@@H](C)O)C(=O)N1CCC[C@H]1C(=O)N[C@@H](CO)C(=O)N[C@@H](CO)C(=O)N[C@H](C(=O)N[C@@H](CC(N)=O)C(=O)N[C@H](C(=O)NCC(=O)N[C@@H](Cc1c[nH]cn1)C(=O)N[C@@H](CC(N)=O)C(=O)N[C@H](C(=O)N[C@@H](Cc1ccc(O)cc1)C(N)=O)[C@@H](C)O)C(C)C)[C@@H](C)O
Take B2: the IC50 in experiment [1] was 8.07 nM; with rat calcitonin receptor [2] it was 492 nM. The “Ratio rCT/rAmylin binding” value in the experiment with rat calcitonin receptor [3] worked out at 60.9. Further, the “Ratio hCT/hAmylin binding” value in experiment [4] came out at 68.6.

B3: N^-1-[(4S)-4-carboxy-4-(19-carboxynonadecanoylamino)butanoyl]-Gly[Arg1,His14,Arg17,Pro21,Pro27,Pro34]-h-amylin (peptide)
peptide: {C20 diacid-γGlu}-GRCNTATCATQRLAHFLRHSSPNFGAIPSSTNVGPNTY-NH2
modifications: disulfide 3-8
SMILES: CC[C@H](C)[C@H](NC(=O)[C@H](C)NC(=O)CNC(=O)[C@H](Cc1ccccc1)NC(=O)[C@H](CC(N)=O)NC(=O)[C@@H]1CCCN1C(=O)[C@H](CO)NC(=O)[C@H](CO)NC(=O)[C@H](Cc1c[nH]cn1)NC(=O)[C@H](CCCNC(=N)N)NC(=O)[C@H](CC(C)C)NC(=O)[C@H](Cc1ccccc1)NC(=O)[C@H](Cc1c[nH]cn1)NC(=O)[C@H](C)NC(=O)[C@H](CC(C)C)NC(=O)[C@H](CCCNC(=N)N)NC(=O)[C@H](CCC(N)=O)NC(=O)[C@@H](NC(=O)[C@H](C)NC(=O)[C@@H]1CSSC[C@H](NC(=O)[C@H](CCCNC(=N)N)NC(=O)CNC(=O)CC[C@H](NC(=O)CCCCCCCCCCCCCCCCCCC(=O)O)C(=O)O)C(=O)N[C@@H](CC(N)=O)C(=O)N[C@@H]([C@@H](C)O)C(=O)N[C@@H](C)C(=O)N[C@@H]([C@@H](C)O)C(=O)N1)[C@@H](C)O)C(=O)N1CCC[C@H]1C(=O)N[C@@H](CO)C(=O)N[C@@H](CO)C(=O)N[C@H](C(=O)N[C@@H](CC(N)=O)C(=O)N[C@H](C(=O)NCC(=O)N1CCC[C@H]1C(=O)N[C@@H](CC(N)=O)C(=O)N[C@H](C(=O)N[C@@H](Cc1ccc(O)cc1)C(N)=O)[C@@H](C)O)C(C)C)[C@@H](C)O
On to B3, for which the concentration for half-maximal inhibition (IC50) in experiment [1] was determined as 0.674 nM; with rat calcitonin receptor [2], 65.9 nM. Besides, in the experiment with rat calcitonin receptor [3], the “Ratio rCT/rAmylin binding” value worked out at 97.7. Besides, the “Ratio hCT/hAmylin binding” value in experiment [4] was found to be 36.2.

On to {C20 diacid-γGlu}-GRCNTATCATQRLAAFLRHSSPNFGAIPSSTNVGPNTY-NH2 (disulfide 3-8), for which the 50% inhibitory concentration (IC50) in experiment [1] was found to be 0.436 nM; with rat calcitonin receptor [2] it was 56.3 nM. For the same molecule, in the experiment with rat calcitonin receptor [3], the “Ratio rCT/rAmylin binding” value came out at 129. Further, the “Ratio hCT/hAmylin binding” value in experiment [4] is 26.5.

B4: N{-1}-[(4S)-4-carboxy-4-(19-carboxynonadecanoylamino)butanoyl]-Gly[Arg1,His14,Arg17,Pro21,Pro27]-h-amylin (peptide)
peptide: {C20 diacid-γGlu}-GRCNTATCATQRLAHFLRHSSPNFGAIPSSTNVGSNTY-NH2
modifications: disulfide 3-8
SMILES: CC[C@H](C)[C@H](NC(=O)[C@H](C)NC(=O)CNC(=O)[C@H](Cc1ccccc1)NC(=O)[C@H](CC(N)=O)NC(=O)[C@@H]1CCCN1C(=O)[C@H](CO)NC(=O)[C@H](CO)NC(=O)[C@H](Cc1c[nH]cn1)NC(=O)[C@H](CCCNC(=N)N)NC(=O)[C@H](CC(C)C)NC(=O)[C@H](Cc1ccccc1)NC(=O)[C@H](Cc1c[nH]cn1)NC(=O)[C@H](C)NC(=O)[C@H](CC(C)C)NC(=O)[C@H](CCCNC(=N)N)NC(=O)[C@H](CCC(N)=O)NC(=O)[C@@H](NC(=O)[C@H](C)NC(=O)[C@@H]1CSSC[C@H](NC(=O)[C@H](CCCNC(=N)N)NC(=O)CNC(=O)CC[C@H](NC(=O)CCCCCCCCCCCCCCCCCCC(=O)O)C(=O)O)C(=O)N[C@@H](CC(N)=O)C(=O)N[C@@H]([C@@H](C)O)C(=O)N[C@@H](C)C(=O)N[C@@H]([C@@H](C)O)C(=O)N1)[C@@H](C)O)C(=O)N1CCC[C@H]1C(=O)N[C@@H](CO)C(=O)N[C@@H](CO)C(=O)N[C@H](C(=O)N[C@@H](CC(N)=O)C(=O)N[C@H](C(=O)NCC(=O)N[C@@H](CO)C(=O)N[C@@H](CC(N)=O)C(=O)N[C@H](C(=O)N[C@@H](Cc1ccc(O)cc1)C(N)=O)[C@@H](C)O)C(C)C)[C@@H](C)O
notes: also called compound 99
Regarding B4, the half-inhibitory concentration (IC50) came out at 2.7 nM in experiment [1] and 216 nM in the experiment with rat calcitonin receptor [2]. For the same molecule, in the experiment with rat calcitonin receptor [3], the “Ratio rCT/rAmylin binding” value came out at 79.8. The “Ratio hCT/hAmylin binding” value in experiment [4] was 100.
